Results published in US20040197809A1.
Several values for one entry are separate records, joined by “and”; a condition that tells them apart may be missing. Equal entries are not always repeated.

Legend:
[1] = target: gp120, the major envelope glycoprotein of HIV-I (HIV-1); assay: saturation binding of 125I-gp120 in solution, immunoprecipitation with OKT4, Scatchard analysis
[2] = target: HIV-1 strain HTLV-IIIB (virus) (HIV-1 strain HTLV-IIIB); assay: cell-based or functional assay
[3] = target: gp120, the major envelope glycoprotein of HIV-I (HIV-1); assay: gp120 binding by the method of Smith et al., Science 238:1704-07 (1987)
[4] = target: Fcγ receptor (determined with U937 cells) (Homo sapiens (Human)) (UniProt P12314); assay: binding to Fcγ receptor on U937 cells, method of Anderson et al., J. Immunol. 125:2735-2741 (1980)
Chain of UniProt P12314 (P12314 16-374 limits assumed, form in doubt): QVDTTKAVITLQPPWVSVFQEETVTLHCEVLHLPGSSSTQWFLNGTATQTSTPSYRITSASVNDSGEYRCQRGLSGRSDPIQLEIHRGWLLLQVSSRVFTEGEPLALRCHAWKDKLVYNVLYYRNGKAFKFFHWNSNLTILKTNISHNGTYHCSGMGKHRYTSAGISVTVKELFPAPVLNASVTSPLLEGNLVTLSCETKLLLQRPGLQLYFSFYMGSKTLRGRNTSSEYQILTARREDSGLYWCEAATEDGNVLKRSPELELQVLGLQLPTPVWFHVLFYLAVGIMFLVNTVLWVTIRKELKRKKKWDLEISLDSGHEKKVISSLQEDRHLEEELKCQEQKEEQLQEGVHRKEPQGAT

Substance	Kd [1] [nM]	Indirect immunofluorescence (% positive cells), inhibitor supernatant 1:4 (% positive cells) [2]	Indirect immunofluorescence (% positive cells), inhibitor supernatant undil. (% positive cells) [2]	Reverse transcriptase (cpm/ml × 10^5), inhibitor supernatant 1:4 [2]	Reverse transcriptase (cpm/ml × 10^5), inhibitor supernatant undil. [2]	Kd [3] [nM]	Kd [4] [nM]
CD4T (CD4 fused after residue 368 of mature CD4 to 9 residues coded by pBR322 sequence) (from UniProt P01730 27-393) (receptor)	0.83	18 and 16.1	0.4 and 0.8	372000 cpm/ml and 594000 cpm/ml	11000 cpm/ml and 15000 cpm/ml		
CD42γ1 immunoadheson (CD4 to glutamine residue 180 fused to the constant region of human immunoglobulin γ1) (Fc fusion)						1.4	3.01
CD44γ1 immunoadheson (CD4 to serine residue 366 fused to the constant region of human immunoglobulin γ1) (Fc fusion)						1.2	2.83
bulk human IgG1 (antibody)							3.52
gDCD4T (signal peptide and first 27 residues of mature HSV type I gD glycoprotein fused to mature CD4T) (receptor)	0.72	26.8 and 36.1		992000 cpm/ml and 1.13e+06 cpm/ml	14000 cpm/ml and 23000 cpm/ml		
